The text below walks through data of publication PMC6379675, “Structural insights into chromosome attachment to the nuclear envelope by an inner nuclear membrane protein Bqt4 in fission yeast” (Nucleic Acids Research, 2018).

Ends that are not written are not given here.

The target of experiment [1] is T1, SUMO_(21–92)-Bqt4_(8–140) fusion protein (S. pombe, UniProt O60158 8-140).
T1 construct: Bqt4, S. pombe, residues 8-140; crystallisation fusion; also called SUMO-Bqt4NTD; Sumo-fused Bqt4_(8–140); not shown: SUMO (residues 21-92), N-terminal, kept
T1 sequence (looked up): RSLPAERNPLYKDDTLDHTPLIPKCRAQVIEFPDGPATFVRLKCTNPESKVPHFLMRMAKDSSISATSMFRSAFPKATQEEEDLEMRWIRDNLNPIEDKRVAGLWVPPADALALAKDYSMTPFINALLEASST
Put plainly: crystal structure; Bqt4 construct and peptide mixed at a molar ratio of 1:1.5; molecular replacement. The conditions noted are these: both partners purified.

Experiment [2] has as its target T2, Bqt4_(2–140), N-terminal domain of Bqt4 (S. pombe, UniProt O60158 2-140).
T2 construct: Bqt4, S. pombe inner nuclear membrane protein, residues 2-140; also called Bqt4NTD; Bqt4NTD^WT; source: E. coli BL21(DE3), purified (Ni-NTA, on-beads Ulp1 digestion, Superdex200); not shown: His6, N-terminal, cleaved; SUMO, N-terminal, cleaved
T2 sequence (looked up): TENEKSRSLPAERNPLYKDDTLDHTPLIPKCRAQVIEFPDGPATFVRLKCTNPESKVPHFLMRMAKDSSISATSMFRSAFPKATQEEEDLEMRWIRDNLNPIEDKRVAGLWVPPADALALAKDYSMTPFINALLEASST
Put plainly: pull-down; 30 μg GST-tagged Rap1 and 20 μg purified Bqt4 on glutathione-Sepharose 4B beads, 25 mM Tris pH 8.0, 100 mM NaCl, 10% glycerol, 4°C, 40 min; SDS-PAGE. Particulars: both partners purified.

A further experiment has as its target T3, Bqt4_(2–180) (S. pombe, UniProt O60158 2-180).
T3 construct: Bqt4, S. pombe, residues 2-180; also called N-terminal region of Bqt4; source: E. coli BL21(DE3), purified (Ni-NTA, on-beads Ulp1 digestion, Superdex200); not shown: His6, N-terminal, cleaved; SUMO, N-terminal, cleaved
T3 sequence (looked up): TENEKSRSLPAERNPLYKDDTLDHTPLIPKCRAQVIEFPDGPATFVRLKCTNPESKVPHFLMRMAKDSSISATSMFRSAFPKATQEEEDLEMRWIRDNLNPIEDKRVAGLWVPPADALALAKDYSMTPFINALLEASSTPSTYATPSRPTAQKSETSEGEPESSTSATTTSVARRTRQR
Described as above. Particulars: both partners purified.

Experiment [3] deals with T2, Bqt4_(2–140), N-terminal domain of Bqt4. Description: fluorescence polarisation; 100 nM FITC-labeled Lem2BBM with Bqt4NTD from 20 nM to 50 μM; 25 mM Tris–HCl pH 8.0, 150 mM NaCl, 10% glycerol; 25°C. The conditions noted are these: both partners purified. On the technique in general: Fluorescence polarisation rises when a labelled molecule tumbles more slowly, as on binding a larger partner.

Experiment [4] addresses T4, Bqt4_(2–140), N-terminal domain of Bqt4 (S. pombe, UniProt O60158 2-140).
T4 chain: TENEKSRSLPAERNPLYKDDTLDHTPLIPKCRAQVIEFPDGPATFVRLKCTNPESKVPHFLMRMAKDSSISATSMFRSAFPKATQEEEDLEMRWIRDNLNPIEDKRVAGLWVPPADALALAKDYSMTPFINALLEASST
Description: ITC.

In another experiment the target is T5, Bqt4NTD R33A, O60158.
T5 chain: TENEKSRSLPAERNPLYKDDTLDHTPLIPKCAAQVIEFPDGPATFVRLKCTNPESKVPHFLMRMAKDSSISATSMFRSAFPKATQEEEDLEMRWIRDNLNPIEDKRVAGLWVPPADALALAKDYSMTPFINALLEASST
Description: ITC. Particulars: chain shown with the change;; parent: 11.4 ± 1.2.

The target in a further experiment is T6, Bqt4NTD R33A (S. pombe, UniProt O60158 2-140, R33A).
T6 construct: Bqt4, S. pombe, residues 2-140; also called Bqt4 (R33A); source: E. coli BL21(DE3), purified (Ni-NTA, on-beads Ulp1 digestion, Superdex200); not shown: His6, N-terminal, cleaved; SUMO, N-terminal, cleaved
T6 sequence (looked up): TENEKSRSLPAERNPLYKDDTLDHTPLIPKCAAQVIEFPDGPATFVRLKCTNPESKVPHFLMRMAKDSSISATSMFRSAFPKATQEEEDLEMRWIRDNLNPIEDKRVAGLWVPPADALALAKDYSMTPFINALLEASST
Put plainly: ITC; ITC200; peptide (Rap1 479-527 at 1000–1500 μM) titrated into Bqt4 2-140 (100–150 μM), 20°C, 20 mM Tris–HCl pH 8.0, 150 mM NaCl; one binding site model; two independent experiments. Particulars: both partners purified. Background: In ITC the heat of successive injections is recorded.

Experiment [5] deals with T2, Bqt4_(2–140), N-terminal domain of Bqt4. The description is as above. Particulars: both partners purified.
In a further experiment the target is T7, Bqt4NTD D90R, O60158.
T7 chain: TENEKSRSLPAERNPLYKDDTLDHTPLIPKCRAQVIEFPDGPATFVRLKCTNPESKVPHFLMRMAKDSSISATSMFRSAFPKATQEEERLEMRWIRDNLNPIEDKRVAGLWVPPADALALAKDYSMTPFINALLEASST
Put plainly: ITC. The conditions noted are these: chain shown with the change;; parent: 11.4 ± 1.2.

The next experiment addresses T8, Bqt4NTD D90R (S. pombe, UniProt O60158 2-140, D90 into arginine).
T8 construct: Bqt4, S. pombe, residues 2-140; also called Bqt4^D90 substituted into arginine; source: E. coli BL21(DE3), purified (Ni-NTA, on-beads Ulp1 digestion, Superdex200); not shown: His6, N-terminal, cleaved; SUMO, N-terminal, cleaved
T8 sequence (looked up): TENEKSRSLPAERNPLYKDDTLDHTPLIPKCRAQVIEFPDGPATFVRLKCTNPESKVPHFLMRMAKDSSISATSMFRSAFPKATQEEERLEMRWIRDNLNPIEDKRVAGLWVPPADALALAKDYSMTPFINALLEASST
Description: ITC; ITC200; peptide (Rap1 479-527 at 1000–1500 μM) titrated into Bqt4 2-140 (100–150 μM), 20°C, 20 mM Tris–HCl pH 8.0, 150 mM NaCl; one binding site model; two independent experiments. The conditions noted are these: both partners purified.

B1: Rap1_(498–512) (peptide)
peptide: GPLDDEEAFEKQVTSSYS
notes: three extra residues left at the N-terminus after removal of GST by 3C protease; also called Rap1BBM (in the crystal); source: E. coli BL21(DE3), purified (glutathione-Sepharose 4B, on-beads 3C digestion, Superdex75); not shown: GST, N-terminal, cleaved
B1: the binding result in experiment [1] was “binds”.

B2: GST-tagged Rap1_(490–513) (peptide, UniProt Q96TL7 490-513, looked up)
chain: ENISEKSSDDEEAFEKQVTSSYSS
notes: also called GST-Rap1BBM; source: E. coli BL21(DE3); not shown: GST, N-terminal, kept
In the case of B2, the binding result (in experiment [2]; in the experiment with Bqt4_(2–180)) was “binds” throughout.

B3: FITC-labeled Lem2BBM (peptide, UniProt Q10109 261-279, looked up)
chain: SAEEDDELFQNYVLQQTRK
modifications: also: FITC label, position not given here
notes: also called fluorescent FITC-labeled Lem2BBM; source: E. coli BL21(DE3), purified; labeled with EZLabel Protein FITC Labeling Kit; not shown: GST, N-terminal, cleaved
In experiment [3], B3 returned a Kd of 0.61 µM.

B4: Rap1_(479–527) S497E (domain or fragment, S. pombe, UniProt Q96TL7 479-527, looked up)
chain: EIPLLSDYSDSENISEKSEDDEEAFEKQVTSSYSSPIKVKSQGKSSKGS
notes: phosphomimetic; also called Rap1^S497E; source: E. coli BL21(DE3), purified (glutathione-Sepharose 4B, on-beads 3C digestion, Superdex75); not shown: GST, N-terminal, cleaved
Take B4: the Kd turned out to be 2.6 µM in experiment [4] and 24.1 µM with Bqt4NTD R33A, O60158. In addition, the binding result (in the experiment with Bqt4NTD R33A; in [5]) was “binds” throughout.

B5: Rap1_(479–527) S513E (domain or fragment, S. pombe, UniProt Q96TL7 479-527, looked up)
chain: EIPLLSDYSDSENISEKSSDDEEAFEKQVTSSYSEPIKVKSQGKSSKGS
notes: phosphomimetic; also called Rap1^S513E; source: E. coli BL21(DE3), purified (glutathione-Sepharose 4B, on-beads 3C digestion, Superdex75); not shown: GST, N-terminal, cleaved
Regarding B5, the Kd in experiment [4] amounted to 57.8 µM; with Bqt4NTD D90R, O60158, 21.2 µM. In addition, the “fold decrease in binding affinity against wild-type Rap1” value in experiment [5] is 5 fold. Further, the binding result with Bqt4NTD D90R is given as “binds”.

The Kd is a measure of binding affinity in units of concentration.
